Read-outs that look alike come from different tables or passages of the source. Square brackets hold non-standard residues; d marks the D form. Primed or numbered codes have the meaning given here. Ends that are not written are not given here. * marks the point of attachment. acetamidofluorescein″ = acetamidofluorescein (5-iodoacetamidofluorescein attached to the C-terminal Cys); Fluorescein(5-NHCOCH2) = O=C(C*)Nc1ccc2c(c1)C(=O)OC21c2ccc(O)cc2Oc2cc(O)ccc21; pS = N[C@@H](COP(=O)(O)O)C(=O)O
Assays:
HisKIX [1] = molecular target: T1, HisKIX (UniProt P45481 586-672); experiment: FP with HisKIX
T1 construct: range 586-672; the residue numbers fit mouse CBP; also called His-tagged CBP KIX domain; CBP KIX; not shown: amino-terminal hexahistidine tag and linker of pET15b
T1 sequence (P45481 586-672): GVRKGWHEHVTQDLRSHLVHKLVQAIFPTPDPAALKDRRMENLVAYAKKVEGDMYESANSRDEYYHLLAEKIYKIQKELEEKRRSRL

HisKIX [2] = molecular target: T1, HisKIX; experiment: FP, fluorescein-labelled peptide titrated with HisKIX, 25 C
[3] = molecular target: T2, CBP KIX, wild type (Example 20) (UniProt P45481 586-665, limits assumed); experiment: FP with CBP KIX
T2 construct: domain: KIX; also called wild type CBP KIX; CBP MX
T2 sequence (P45481 586-665 limits assumed): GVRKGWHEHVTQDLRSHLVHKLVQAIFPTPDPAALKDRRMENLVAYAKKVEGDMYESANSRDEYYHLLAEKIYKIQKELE

[4] = molecular target: T2, CBP KIX, wild type (Example 20); experiment: FP, fluorescein-labelled PPKID4^P variant titrated with CBP KIX
HisKIX [5] = molecular target: T1, HisKIX; experiment: FP, fluorescein-labelled peptide titrated with HisKIX, 25 C; remark: listed apart in the source
[6] = molecular target: carbonic anhydrase II (Sigma); experiment: FP, 50 nM fluorescein-labelled peptide titrated with carbonic anhydrase II, 25 C
carbonic anhydrase II (Sigma), sequence (P00921 2-260): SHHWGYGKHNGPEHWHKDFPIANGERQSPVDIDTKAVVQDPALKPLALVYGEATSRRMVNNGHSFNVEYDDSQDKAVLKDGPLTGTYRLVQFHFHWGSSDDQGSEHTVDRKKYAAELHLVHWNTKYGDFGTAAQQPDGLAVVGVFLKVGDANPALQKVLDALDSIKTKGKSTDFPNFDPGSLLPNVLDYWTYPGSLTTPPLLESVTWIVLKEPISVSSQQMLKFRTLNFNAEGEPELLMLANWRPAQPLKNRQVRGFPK

[7] = molecular target: T3, Human recombinant Bcl-2 (1-205), soluble GST-fusion (Santa Cruz Biotechnology) (human, UniProt P10415 1-205); experiment: fluorescence emission titration, fluorescein-labelled peptide + serially diluted Bcl-2, 4 C, PBS
T3 construct: Bought; also called GST-Bcl-2; not shown: glutathione S-transferase (GST) fusion partner
T3 sequence (P10415 1-205): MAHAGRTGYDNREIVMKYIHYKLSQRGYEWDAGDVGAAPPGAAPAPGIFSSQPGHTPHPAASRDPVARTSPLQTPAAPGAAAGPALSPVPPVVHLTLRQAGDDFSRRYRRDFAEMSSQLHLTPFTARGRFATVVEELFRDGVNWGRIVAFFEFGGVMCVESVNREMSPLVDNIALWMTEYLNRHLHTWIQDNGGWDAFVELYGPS

CBP KIX Y658A [8] = molecular target: T4, CBP KIX Y658A (UniProt P45481 586-665, limits assumed); experiment: FP with CBP KIX variant
T4 construct: domain: KIX
T4 sequence (P45481 586-665 Y658A limits assumed): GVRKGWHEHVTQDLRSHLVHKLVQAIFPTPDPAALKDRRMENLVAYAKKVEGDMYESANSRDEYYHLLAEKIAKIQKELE

CBP KIX Y658F [9] = molecular target: T5, CBP KIX Y658F (UniProt P45481 586-665, limits assumed); experiment: FP with CBP KIX variant
T5 construct: domain: KIX
T5 sequence (P45481 586-665 Y658F limits assumed): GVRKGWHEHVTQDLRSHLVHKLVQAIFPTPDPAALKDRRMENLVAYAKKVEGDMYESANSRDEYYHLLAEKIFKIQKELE

CBP KIX K662A [10] = molecular target: T6, CBP KIX K662A (UniProt P45481 586-665, limits assumed); experiment: FP with CBP KIX variant
T6 construct: domain: KIX
T6 sequence (P45481 586-665 K662A limits assumed): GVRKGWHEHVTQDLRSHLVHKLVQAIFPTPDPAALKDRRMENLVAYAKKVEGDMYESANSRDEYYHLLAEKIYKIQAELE

[11] = molecular target: T7, CBP KIX Y650A (Example 20) (UniProt P45481 586-665, limits assumed); experiment: FP with CBP KIX variant
T7 construct: domain: KIX
T7 sequence (P45481 586-665 Y650A limits assumed): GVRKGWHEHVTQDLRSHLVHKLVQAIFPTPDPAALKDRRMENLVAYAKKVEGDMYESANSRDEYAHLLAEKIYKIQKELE

CBP KIX L603A [12] = molecular target: T8, CBP KIX L603A (UniProt P45481 586-665, limits assumed); experiment: FP with CBP KIX variant
T8 construct: domain: KIX
T8 sequence (P45481 586-665 L603A limits assumed): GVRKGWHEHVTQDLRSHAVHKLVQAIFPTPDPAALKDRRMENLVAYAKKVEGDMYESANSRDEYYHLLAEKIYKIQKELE

CBP KIX LL652-3AA [13] = molecular target: T9, CBP KIX LL652-3AA (UniProt P45481 586-665, limits assumed); experiment: FP with CBP KIX variant
T9 construct: domain: KIX
T9 sequence (P45481 other isoform, or with tags, fused parts or gaps limits assumed): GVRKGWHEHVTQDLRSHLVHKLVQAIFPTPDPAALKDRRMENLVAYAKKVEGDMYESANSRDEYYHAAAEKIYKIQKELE

CBP KIX K606A [14] = molecular target: T10, CBP KIX K606A (UniProt P45481 586-665, limits assumed); experiment: FP with CBP KIX variant
T10 construct: domain: KIX
T10 sequence (P45481 586-665 K606A limits assumed): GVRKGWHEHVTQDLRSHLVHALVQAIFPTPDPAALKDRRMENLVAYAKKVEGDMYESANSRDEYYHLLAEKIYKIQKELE

CBP KIX I657A [15] = molecular target: T11, CBP KIX I657A (UniProt P45481 586-665, limits assumed); experiment: FP with CBP KIX variant
T11 construct: domain: KIX; also called 1657A
T11 sequence (P45481 586-665 I657A limits assumed): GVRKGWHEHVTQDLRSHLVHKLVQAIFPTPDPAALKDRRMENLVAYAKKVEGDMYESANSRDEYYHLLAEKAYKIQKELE

CBP KIX L599A [16] = molecular target: T12, CBP KIX L599A (UniProt P45481 586-665, limits assumed); experiment: FP with CBP KIX variant
T12 construct: domain: KIX
T12 sequence (P45481 586-665 L599A limits assumed): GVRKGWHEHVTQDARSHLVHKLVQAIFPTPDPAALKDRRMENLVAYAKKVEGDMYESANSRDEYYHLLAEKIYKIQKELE

CBP KIX Q661A [17] = molecular target: T13, CBP KIX Q661A (UniProt P45481 586-665, limits assumed); experiment: FP with CBP KIX variant
T13 construct: domain: KIX
T13 sequence (P45481 586-665 Q661A limits assumed): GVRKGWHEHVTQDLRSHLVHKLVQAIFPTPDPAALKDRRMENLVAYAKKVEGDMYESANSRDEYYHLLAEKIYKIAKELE

CBP KIX E655A [18] = molecular target: T14, CBP KIX E655A (UniProt P45481 586-665, limits assumed); experiment: FP with CBP KIX variant
T14 construct: domain: KIX
T14 sequence (P45481 586-665 E655A limits assumed): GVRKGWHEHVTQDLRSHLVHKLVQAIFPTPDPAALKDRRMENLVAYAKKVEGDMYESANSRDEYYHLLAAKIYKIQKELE

CBP KIX I660A [19] = molecular target: T15, CBP KIX I660A (UniProt P45481 586-665, limits assumed); experiment: FP with CBP KIX variant
T15 construct: domain: KIX; also called 1660A
T15 sequence (P45481 586-665 I660A limits assumed): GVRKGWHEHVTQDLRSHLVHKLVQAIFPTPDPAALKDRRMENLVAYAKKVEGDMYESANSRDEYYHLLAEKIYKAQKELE

[20] = molecular target: T2, CBP KIX, wild type (Example 20); experiment: FP, 25 nM fluorescein-labelled ligand titrated with CBP KIX, 25 C
CBP KIX Y658A [21] = molecular target: T4, CBP KIX Y658A; experiment: FP, 25 nM fluorescein-labelled ligand titrated with CBP KIX variant, 25 C
CBP KIX Y658F [22] = molecular target: T5, CBP KIX Y658F; experiment: as above
CBP KIX K662A [23] = molecular target: T6, CBP KIX K662A; experiment: as above
[24] = molecular target: T7, CBP KIX Y650A (Example 20); experiment: as above
CBP KIX L603A [25] = molecular target: T8, CBP KIX L603A; experiment: as above
CBP KIX LL652-3AA [26] = molecular target: T9, CBP KIX LL652-3AA; experiment: as above
CBP KIX K606A [27] = molecular target: T10, CBP KIX K606A; experiment: as above
CBP KIX I657A [28] = molecular target: T11, CBP KIX I657A; experiment: as above
CBP KIX L599A [29] = molecular target: T12, CBP KIX L599A; experiment: as above
CBP KIX Q661A [30] = molecular target: T13, CBP KIX Q661A; experiment: as above
CBP KIX E655A [31] = molecular target: T14, CBP KIX E655A; experiment: as above
CBP KIX I660A [32] = molecular target: T15, CBP KIX I660A; experiment: as above

B1: PPKID6^P (designed binder)
peptide: GISWPTFEGDDAPVRRL[pS]FFYILLDLYLDAPGVC(Fluorescein(5-NHCOCH2))-NH2
modifications: N-terminus assumed
SMILES: CC[C@H](C)[C@H](NC(=O)CN)C(=O)N[C@@H](CO)C(=O)N[C@@H](Cc1c[nH]c2ccccc12)C(=O)N1CCC[C@H]1C(=O)N[C@H](C(=O)N[C@@H](Cc1ccccc1)C(=O)N[C@@H](CCC(=O)O)C(=O)NCC(=O)N[C@@H](CC(=O)O)C(=O)N[C@@H](CC(=O)O)C(=O)N[C@@H](C)C(=O)N1CCC[C@H]1C(=O)N[C@H](C(=O)N[C@@H](CCCNC(=N)N)C(=O)N[C@@H](CCCNC(=N)N)C(=O)N[C@@H](CC(C)C)C(=O)N[C@@H](COP(=O)(O)O)C(=O)N[C@@H](Cc1ccccc1)C(=O)N[C@@H](Cc1ccccc1)C(=O)N[C@@H](Cc1ccc(O)cc1)C(=O)N[C@H](C(=O)N[C@@H](CC(C)C)C(=O)N[C@@H](CC(C)C)C(=O)N[C@@H](CC(=O)O)C(=O)N[C@@H](CC(C)C)C(=O)N[C@@H](Cc1ccc(O)cc1)C(=O)N[C@@H](CC(C)C)C(=O)N[C@@H](CC(=O)O)C(=O)N[C@@H](C)C(=O)N1CCC[C@H]1C(=O)NCC(=O)N[C@H](C(=O)N[C@@H](CSCC(=O)Nc1ccc2c(c1)C(=O)OC21c2ccc(O)cc2Oc2cc(O)ccc21)C(N)=O)C(C)C)[C@@H](C)CC)C(C)C)[C@@H](C)O
notes: also called PPKID6 (phosphorylated)
With B1 the “fold enhancement in affinity over unphosphorylated PPKID6” value (HisKIX [1]) was 2 fold, the “ΔΔG relative to unphosphorylated PPKID6” value (HisKIX [1]) was -0.5 kcal/mol and the Kd (HisKIX [2]) was 624 nM.

For GPSQPTYPGDDAPVRRL[pS]FAYILLDLYLDAPGVC(acetamidofluorescein″)-NH2 (designed binder) [PPKID4^P F20A], the “ΔΔG relative to wild type PPKID4^P” value [3] was 0.85 kcal/mol and the Kd [4] was 2550 nM.

With GPSQATYPGDDAPVRRL[pS]FFYILLDLYLDAPGVC(acetamidofluorescein″)-NH2 (designed binder) [PPKID4^P P5A] the “ΔΔG relative to wild type PPKID4^P” value [3] was 0.3 kcal/mol and the Kd [4] was 1020 nM.

For GPSQPTYPGDDAPVRRA[pS]FFYILLDLYLDAPGVC(acetamidofluorescein″)-NH2 (designed binder) [PPKID4^P L17A], the “ΔΔG relative to wild type PPKID4^P” value [3] was 0.07 kcal/mol and the Kd [4] was 680 nM.

GPSQPTYPGDDAPVRRL[pS]FFYILADLYLDAPGVC(acetamidofluorescein″)-NH2 (designed binder) [PPKID4^P L24A] was tested, and the “ΔΔG relative to wild type PPKID4^P” value [3] was 0.38 kcal/mol and the Kd [4] was 1160 nM.

GPSQPTYPGDDAPVRRL[pS]FFYILLDLYADAPGVC(acetamidofluorescein″)-NH2 (designed binder) [PPKID4^P L28A] was tested, and the “ΔΔG relative to wild type PPKID4^P” value [3] was 0.18 kcal/mol and the Kd [4] was 830 nM.

In the case of GPSQPTYAGDDAPVRRL[pS]FFYILLDLYLDAPGVC(acetamidofluorescein″)-NH2 (designed binder) [PPKID4^P P8A], the “ΔΔG relative to wild type PPKID4^P” value [3] is reported as 0.33 kcal/mol and the Kd [4] is reported as 1070 nM.

For GPSQPTYPGDDAPVRRL[pS]FFYILLDLALDAPGVC(acetamidofluorescein″)-NH2 (designed binder) [PPKID4^P Y27A], the “ΔΔG relative to wild type PPKID4^P” value [3] was 0.96 kcal/mol and the Kd [4] was 3090 nM.

For GASQPTYPGDDAPVRRL[pS]FFYILLDLYLDAPGVC(acetamidofluorescein″)-NH2 (designed binder) [PPKID4^P P2A], the “ΔΔG relative to wild type PPKID4^P” value [3] was 0.21 kcal/mol and the Kd [4] was 870 nM.

B2: peptide C^U (peptide)
peptide: RRLSFFYILLDLYLDAPGVC(acetamidofluorescein)-NH2
notes: also called Peptide C (unphosphorylated)
For B2, the “ΔΔG relative to KID-B^U” value (HisKIX [1]) was greater than -1.5 kcal/mol, the Kd (HisKIX [2]) was 21500 nM and the Kd (HisKIX [5]) was 21500 nM. It also gave a Kd [6] of 66000 nM.

B3: p4100 (designed binder)
peptide: GPSQPTYPGDDAPVEDLIRFVGRLLRYFGDEINRYC(5‑iodoacetamidofluorescein)-NH2
notes: As for p4099: amino terminal portion from aPP (e.g., residues 1-19); also called p4122 (labelled form, by order and mass)
B3 gave a Kd [7] of 401 nM.

B4: p4101 (designed binder)
peptide: GPSQPTYPGDDAPVEDLIRFVGRLLAYFGDDINRYC(5‑iodoacetamidofluorescein)-NH2
notes: As for p4099: amino terminal portion from aPP (e.g., residues 1-19); also called p4123 (labelled form, by order and mass)
For B4, the Kd [7] was 811 nM.

B5: KID-AB^P (peptide)
peptide: TDSQKRREILSRRP[pS]YRKILNDLSSDAPGVC-NH2
modifications: also: C-terminal Cys acetamidofluorescein-labelled in direct assays, unlabelled as competitor
notes: CREB KID residues 119-148 (A and B helices) plus a C-terminal Cys; also called KID-AB (phosphorylated); CREB KID^P
With B5 the ΔΔG upon phosphorylation (HisKIX [1]) was greater than 3.2 kcal/mol, the “ΔΔG relative to wild type CBP KIX” value (CBP KIX Y658A [8]) was 3.5 kcal/mol and the “ΔΔG relative to wild type CBP KIX” value (CBP KIX Y658F [9]) was 2.5 kcal/mol. The “ΔΔG relative to wild type CBP KIX” value (CBP KIX K662A [10]) was 1.5 kcal/mol, the “ΔΔG relative to wild type CBP KIX” value [11] was 1.8 kcal/mol and the “ΔΔG relative to wild type CBP KIX” value (CBP KIX L603A [12]) was 1.2 kcal/mol. For the same binder, the “ΔΔG relative to wild type CBP KIX” value (CBP KIX LL652-3AA [13]) was 1.2 kcal/mol, the “ΔΔG relative to wild type CBP KIX” value (CBP KIX K606A [14]) was 1 kcal/mol and the “ΔΔG relative to wild type CBP KIX” value (CBP KIX I657A [15]) was 0.9 kcal/mol. The “ΔΔG relative to wild type CBP KIX” value (CBP KIX L599A [16]) was 0.58 kcal/mol, the “ΔΔG relative to wild type CBP KIX” value (CBP KIX Q661A [17]) was 0.48 kcal/mol and the “ΔΔG relative to wild type CBP KIX” value (CBP KIX E655A [18]) was 0.32 kcal/mol. The “ΔΔG relative to wild type CBP KIX” value (CBP KIX I660A [19]) was -0.26 kcal/mol, the Kd (HisKIX [2]) was 562 nM and the Kd [20] was 410 nM. The Kd (CBP KIX Y658A [21]) was 142000 nM, the Kd (CBP KIX Y658F [22]) was 26000 nM and the Kd (CBP KIX K662A [23]) was 4800 nM. The Kd [24] was 9400 nM, the Kd (CBP KIX L603A [25]) was 3400 nM and the Kd (CBP KIX LL652-3AA [26]) was 2900 nM. For the same binder, the Kd (CBP KIX K606A [27]) was 2300 nM, the Kd (CBP KIX I657A [28]) was 1900 nM and the Kd (CBP KIX L599A [29]) was 1100 nM. For the same binder, the Kd (CBP KIX Q661A [30]) was 930 nM, the Kd (CBP KIX E655A [31]) was 710 nM and the Kd (CBP KIX I660A [32]) was 270 nM.

B6: p4102 (designed binder)
peptide: GPSQPTYPGDDAPVEDLIRFVSRLRYIADLINRYC(5‑iodoacetamidofluorescein)-NH2
notes: Mutant with a single amino acid deletion in the alpha-helix; Amino terminal portion from aPP (e.g., residues 1-19); also called p4124 (labelled form, by order and mass)
B6 gave a Kd [7] of 3700 nM.

Source: US20110028686A1 (published 2011)
